Reference: patent publication US20240377414A1 (BELLYLABS, published 2024)

Experiments:
[1] = molecular target: T1, canine relaxin (mature relaxin in pregnant dog serum) (dog, UniProt Q9TRM8 154-177; Q9TRM8 26-60); assay: hybridoma screen for activity against relaxin-positive pregnant dog serum
T1 construct: mature; Endogenous relaxin in serum, plasma or whole blood of pregnant dogs; also called dog relaxin
Experimental: Monoclonal IgG antibodies were prepared by immunizing mice with preprorelaxin (Bioraytec Ltd., Zhuhai, China) using standard laboratory methods known in the art. Anti-preprorelaxin antibody expressing hybridomas were derived by fusing myeloma cells with splenocytes from the immunized mice. The antibodies produced by hybridoma clonal cell lines were initially screened for activity against relaxin-positive pregnant dog serum. Relaxin positivity of the serum was confirmed using the FASTest RELAXIN in vitro test (Diagnostik Megacor, Hörbranz, Austria). The serum contains mature relaxin as preprorelaxin is not present in serum, and so the selected antibodies are reactive against relaxin and not only preprorelaxin.

[2] = molecular target: T1, canine relaxin (mature relaxin in …); assay: hybridoma screen against relaxin-positive dog serum

T1 sequence (Q9TRM8 154-177 limits assumed, chain 1 of 2): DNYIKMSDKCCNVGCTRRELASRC
T1 sequence (Q9TRM8 26-60 limits assumed, chain 2 of 2): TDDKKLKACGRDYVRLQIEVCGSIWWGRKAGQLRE

Row | binding result [1] | binding result [2] | Binder
1 | binds | – | monoclonal antibody 2H7 (antibody, V domains shown, Mouse monoclonal IgG from hybridoma; Mostly used as capture antibody on the test line; gold-labelled as detection antibody in the pair 2F10-2H7; also called capture antibody; hybridoma CCTCC C2021209) VH: DVQLQESGPDLVKPSQSLSLTCTVTGYSITSGYSWHWIRQFPGNKLEWMGYIHYSGRTNYNPSLKSRISITRDTSKNQFFLQLNSVTTEDTATYYCARSMDYWGQGTSVSVSS VL: DIKMTQSPSSMYASLGERVTITCKASQDIKTYLNWYQQKPWKSPKTLIYYATSLADGVPSRFSGSGSGQDFSLTISSLESDDTATYFCLQHGESPPTFGGGTKLEIK
2 | – | binds | monoclonal antibody 9B8 (antibody, V domains shown, also called second detection antibody; hybridoma CCTCC C2021211) VH: EVKLEESGGGLVQPGGSMKLSCAASGFTFSDAWMDWVRRSPEKGLEWIAEIRSKAKNHITYYAESVKGRFTISRDDSKSSVYLQMNSLRTEDSGIYYCTGGFAYWGQGTLVTVSA VL: DAVMTQNPLSLPVSLGDQASISCRSSQSLEKSNGNTYLNWYLQKPGQSPQLLIYRVSNRFSGVPDRISGGGSGTDFTLKISRVEAEDLGVYFCVQVSHVPFTFGSGTKLEIK
3 | – | binds | monoclonal antibody 2A4 (antibody, V domains shown, also called first detection antibody; hybridoma CCTCC C2021210) VH: AVNLEESGGGLVLPGGSMKLSCTASGFTFSDAWMDWVRRSPEKGLEWLAEIRDETNNHITYYAESVKVRFIISRDDSKSSVYLQMNNLRPEDTGIYYCAAGFAYWGQGTLVTVSA VL: DAVMTQTPLSLSVSLGDQASISCRSSQSLEKSNGKTYLNWYLQKPGQSPQLLIYRVSNRFSGVLDRFSGSGSGTDFTLKISRVEAEDLGLYFCLQVSHVPFTFGSGTKLEIK
